Results: paper PMC8722725, “Histone H3 deacetylation promotes host cell viability for efficient infection by Listeria monocytogenes” (PLoS Pathogens, 2021)

Target: T1, mCherry-TDP-43 (UniProt Q13148 1-414)
T1 construct: TDP-43, cloned from the plasmid TDP43 NOTAG1 (Addgene #28206); also called pmCherry TDP-43; source: HeLa, co-transfected, in lysate
Assay: co-IP; RFP-Trap agarose beads on lysate of HeLa cells co-transfected with mCherry-TDP-43 and SIRT2-GFP variants; blot for TDP-43 and GFP
Settings: partners not purified

T1 sequence (Q13148 whole entry): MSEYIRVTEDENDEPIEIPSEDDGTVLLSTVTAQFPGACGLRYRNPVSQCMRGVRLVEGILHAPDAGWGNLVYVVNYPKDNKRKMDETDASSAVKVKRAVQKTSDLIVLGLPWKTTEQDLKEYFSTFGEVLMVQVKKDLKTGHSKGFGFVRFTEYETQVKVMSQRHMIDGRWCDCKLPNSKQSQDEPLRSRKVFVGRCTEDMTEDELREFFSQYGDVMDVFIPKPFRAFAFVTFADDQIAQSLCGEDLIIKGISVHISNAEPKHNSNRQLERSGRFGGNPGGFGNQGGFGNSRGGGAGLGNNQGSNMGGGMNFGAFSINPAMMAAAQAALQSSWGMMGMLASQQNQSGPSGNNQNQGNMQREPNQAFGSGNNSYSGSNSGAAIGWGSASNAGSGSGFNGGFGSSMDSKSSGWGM

- fold increase in co-precipitation relative to the WT variant: ~2.5 fold
B1: dephosphomimetic S25A SIRT2-GFP (enzyme, UniProt Q8IXJ6 1-389, looked up)
chain: MAEPDPSHPLETQAGKVQEAQDSDADSEGGAAGGEADMDFLRNLFSQTLSLGSQKERLLDELTLEGVARYMQSERCRRVICLVGAGISTSAGIPDFRSPSTGLYDNLEKYHLPYPEAIFEISYFKKHPEPFFALAKELYPGQFKPTICHYFMRLLKDKGLLLRCYTQNIDTLERIAGLEQEDLVEAHGTFYTSHCVSASCRHEYPLSWMKEKIFSEVTPKCEDCQSLVKPDIVFFGESLPARFFSCMQSDFLKVDLLLVMGTSLQVQPFASLISKAPLSTPRLLINKEKAGQSDPFLGMIMGLGGGMDFDSKKAYRDVAWLGECDQGCLALAELLGWKKELEDLVRREHASIDAQSGAGVPNPSTSASPKKSPPPAKDEARTTEREKPQ
notes: Sirtuin 2 (SIRT2) with the dephosphomimetic change S25A; also called S25A dephosphomimetic; source: HeLa, co-transfected, in lysate
